Source: patent publication US7244563B2, “Genes for plant fatty acid modifying enzymes associated with conjugated double bond formation” (E. I. du Pont de Nemours and Company, priority 2002, dated 2007)

Key:
[1] = system: Saccharomyces cerevisiae INVSc1 cells; experiment: Expression in Saccharomyces cerevisiae, accumulation of fatty acids with conjugated double bonds; format: cell-based; details: 4 days at 16°
Protocol: The Impatiens balsamina clone ImpH8Fad2 was partially digested with the restriction enzymes EcoRI and XhoI. A resulting 1.5 kb DNA fragment containing the entire cDNA insert was purified by agarose gel electrophoresis. The cDNA insert was obtained from agarose gel by digestion with GELase™ (Epicentre Technologies) according to the manufacturer's instructions, ethanol precipitated, dried and resuspended in 20 μL of water. The purified cDNA was ligated into the EcoRI and XhoI sites of the Saccharomyces cerevisiae expression vector pYES2 (Invitrogen) using T4 DNA ligase (New England Biolabs). The resulting plasmid pYes2/ImpH8Fad2 was introduced into Saccharomyces cerevisiae INVSc1 (=Invitrogen)cells by lithium acetate-mediated transformation [Sherman F, Fink G R, Hicks J B, Methods in Yeast Genetics: A Laboratory Course Manual, Cold Spring Harbor Lab. Press, Plainview, N.Y. (1987)]. Transformed cells were selected by their ability to grow in the absence of uracil. Individual colonies of transformed cells were then grown for 2 days at 30° in growth media lacking uracil [0.17% (w/v) yeast nitrogen base without amino acids (Difco), 0.5% (w/v) ammonium sulfate, and 0.18% SC-URA (Bio101)] supplemented with glycerol and glucose to a final concentration of 5% (v/v) and 0.5% (w/v), respectively. Cells were then washed twice in the growth media described above that was supplemented instead with galactose to a final concentration of 2% (w/v). The washed cells were then diluted to O.D.600≈0.2 in the galactose-containing growth media that also contained Tergitol NP-40 (Sigma) at a concentration of 0.2% (w/v). Aliquots of these cells were grown without exogenous fatty acids or with the addition of either linoleic acid (18:2Δ^9cis,12cis) or α-linolenic acid (18:3Δ^9cis,12cis,15cis) at a final concentration of 2 mM. Following 4 days of growth at 16°, the S. cerevisiae cells were harvested and examined for the accumulation of fatty acids containing conjugated double bonds as described in Example 4. In cells grown in media containing linoleic acid, α-eleostearic acid was detected in amounts of up to 0.6% (w/w) of the total fatty acids.

[2] = system: soybean seeds; experiment: Fatty acid composition of seeds of regenerated transgenic soybean plants; format: in vivo; details: for Eleostearic / Other / 16:0 / 18:0 / 18:1 / 18:2 / 18:3 / α-Parinaric: single soybean seed; for Eleostearic: includes cis-trans isomers of α-eleostearic acid (<1.5 wt %); for Other: primarily 20:0, 20:1, 22:0, and 22:1; for 16:0 / 18:0 / 18:1 / 18:2 / 18:3 / α-Parinaric: % of total oil weight
Text: To examine the ability of the Momordica fatty acid modifying enzyme associated with conjugated double bond synthesis to function in seeds of crop plants, transgenic soybean embryos expressing this enzyme were regenerated into plants. The fatty acid compositions of segregating seeds from these plants were examined by GC and GC-MS as described in Example 4

[3] = media containing linoleic acid 2 mM
[4] = media containing α-linolenic acid 2 mM

B1: ImpFad2: Impatiens balsamina fatty acid modifying enzyme associated with conjugated double bond formation, SEQ ID NO:2, cDNA SEQ ID NO:1 (protein, listed as Impatiens balsamina)
chain: MGEVGPTNRTKTKLDKQQESENRVPHEPPPFTLSDLKKAIPPHCFERSLVKSFYHVIHDIIILSFFYYVAANYIPMLPQNLRYVAWPIYWAIQGCVQLGILVLGHECGHHAFSDYQWVDDMVGFVLHSSQLIPYFSWKHSHRRHHSNTASIERDEVYPPAYKNDLPWFAKYLRNPVGRFLMIFGALLFGWPSYLLFNANGRLYDRFASHYDPQSPIFNNRERLQVIASDVGLVFAYFVLYKIALAKGFVWLICVYGVPYVILNGLIVLITFLQHTHPNLPRYDLSEWDWLRGALSTVDRDYGMLNKVFHNVTDTHLVHHLFTTMPHYRAKEATEVIKPILGDYYKFDDTPFLKALWKDMGKCIYVESDVPGKNKGVYWYNNDI
In the case of B1, the “α-eleostearic acid of the total fatty acids” value [1, 3] is reported as “up to 0.6 % (w/w)”, the α-parinaric acid detection [1, 3] is reported as “no α-parinaric acid was detected” and the α-eleostearic acid detection [1, 4] is reported as “no α-eleostearic acid was detected”. The “α-parinaric acid of the total fatty acids” value [1, 4] was “up to 0.9 % (w/w)”.

B2: MomFad2: Momordica charantia fatty acid modifying enzyme associated with conjugated double bond formation, SEQ ID NO:4, cDNA SEQ ID NO:3 (protein, listed as Momordica charantia)
chain: MGGRGAIGVLRNGGGPKKKMGPGQGLGPGERITHARPPFSISQIKKAIPPHCFQRSLRRSFSYLLSDIALVSAFYYVADTYFHRLPHPLLHYLAWPVYWFCQGAVLTGMWGIAHDCGHHAFSDYQLVDDVVGFLIHSLVFVPYFSFKISHRRHHSNTSSVDRDEVFVPKPKAKMPWYFKYLTNPPARVFIIFITLTLGWPMYLTFNISGRYYGRFTSHFDPNSPIFSPKERVLVHISNAGLVATGYLLYRIAMAKGVGWLIRLYGVPLIVLNACVVLITALQHTHPSFPYYDSTEWDWLRGNLVTVDRDYGPIMNRVFHHITDTHVVHHLFPSMPHYNGKEATVAAKRILGEYYQFDGTPIWKAAWREFRECVYVEPDEDDGATSGSSSKGVFWYHNKL
With B2 the Eleostearic ([2]; Line 1) was 13.9 Weight %, the Other ([2]; Line 1) was <2.0 Weight % and the Eleostearic ([2]; Line 2) was 13.4 Weight %. The Other ([2]; Line 2) was <2.2 Weight %, the Eleostearic ([2]; Line 3) was 11.6 Weight % and the Other ([2]; Line 3) was <1.5 Weight %. The “16:0” value ([2]; transgenic Line 1) was 8.8 Weight %, the “18:0” value ([2]; transgenic Line 1) was 3.6 Weight % and the “18:1” value ([2]; transgenic Line 1) was 44.5 Weight %. For the same molecule, the “18:2” value ([2]; transgenic Line 1) was 25.7 Weight %, the “18:3” value ([2]; transgenic Line 1) was 1.0 Weight % and the α-Parinaric ([2]; transgenic Line 1) was 0.5 Weight %. The “16:0” value ([2]; transgenic Line 2) was 8.4 Weight %, the “18:0” value ([2]; transgenic Line 2) was 3.5 Weight % and the “18:1” value ([2]; transgenic Line 2) was 48.9 Weight %. The “18:2” value ([2]; transgenic Line 2) was 22.3 Weight %, the “18:3” value ([2]; transgenic Line 2) was 0.7 Weight % and the α-Parinaric ([2]; transgenic Line 2) was 0.4 Weight %. For the same molecule, the “16:0” value ([2]; transgenic Line 3) was 9.7 Weight %, the “18:0” value ([2]; transgenic Line 3) was 3.8 Weight % and the “18:1” value ([2]; transgenic Line 3) was 47.2 Weight %. For the same molecule, the “18:2” value ([2]; transgenic Line 3) was 24.7 Weight %, the “18:3” value ([2]; transgenic Line 3) was 1.0 Weight % and the α-Parinaric ([2]; transgenic Line 3) was 0.5 Weight %. For the same molecule, the “α-eleostearic acid of the total fatty acids” value ([2]; transgenic soybean seeds) was “more than 13%”, the “α-parinaric acid of the total fatty acids” value ([2]; transgenic soybean seeds) was “approximately 0.5%” and the “oleic acid (18:1) content of the total fatty acids” value ([2]; transgenic soybean seeds, about 18 wt % in wild-type) was ~50 wt %. For the same molecule, the “linolenic acid (18:3) content of the total fatty acids” value ([2]; transgenic soybean seeds, nearly 9 wt % in wild-type) was “about 1 wt %”.
